Results reported in the DeepSol protein solubility set.

Experiment: soluble on expression in E. coli; label from the status in PepcDB or PDB records

| Sequence | soluble on expression in E. coli |
| --- | --- |
| MSLEFANFDSDLQYFLFQHIAVLLTANTKYRRALLLYGGAKNGKSVFINLVRSFFYSEDIVSKALNELQGRFDKESLVGKKLMASDEIGESRIQEKIVNDLKKLVSVEPVHVDRKGKTQVETTLDLKLAFGTNARLNFPSAHAKALERRIAVIPCEYYVEKADPDLIEKLQDEKKEIFLYLMYVYKQIVKNDIEYLQNDRVTEISHDWLNFGYEFVSSKSASIANQKACINLLRKLIEIKPGSRIKVSELNKVINEEIKVSSQVIKQLIQANFDTQTKLYNGYDYWIDLGWKEADKKEIHDISKKDNIISLDKNENITDDETLDEENLDFDWEDFDDEGHHHHHH | not soluble |
| MSLEHFFTGTVDRIIFENAANFFKILLLAIEDTDSDIDDFEIIITGTMADIIEGDDYTFWGELTQHPKYGQQLKLSRYQKIKPSSSGLVNYFSSDHFKGIGKKTAEKIIALYGHNTIDHILEDPSKLETISGLSKANRQAFVAKLKLNYGTEQLIAGLVELGLSNRFALQAFEKYKEEALDLVKENPYQLVEDLQGFGFKMADALAENLGIESDSPKRFRAALLHCLLEESINRGDTYVQARQLLDFAITLLEDARQVECDPAAVAEQLSELIIEGKIKNSDTKLFDASLYFAEEGIANNISRLLDTPLSQSFSHDTIQTTIQAVQKDFAITYDQVQQEAITKALTSKVFLLTGGPGTGKTTVIRGILQAYANLHQIDLDKKDLPILLAAPTGRAARRMNELTGLPSATIHRHLGLNGDNDYQAMEDYLDCDLLIVDEFSMVDTWLANQLLGAINSTTQVIIVGDSDQLPSVGPGQVLSDLLKVNSLPQIALQKIFRQSQESTIVNLADQMRRGILAADFRDKKADRSYFEAQAAFIPDMIQKIVLSAIKSGIPAEEIQILAPMYKGQAGINHLNQLMQELLNPLQGQTEFLFNDTHFRKGDKVLHLVNDAQLNVFNGDIGYITDLIPAKYTESKQDELILDFDGSEVTYPRNEWLKLTLAYAMSIHKSQGSEFQVVILPITRQSGRLLQRNVIYTAITRSKSKLILLGEYTAFEYAIKHEGDKRQTYLIERFQEQSDLASSEGHHHHHH | soluble |
| MSLEIKFLSLCILAGVLFVSQVNASANNGKDDVKYAALTQKDLDALPVEKRASVLDELGFIHEYGLSVPMNRERALQYYKQACELGGNYGCYNVKYAYQYGDGVAKDSAQANKYAKKMNLDNLLIEQEYIDKFSQEIYMAKALADTDKSQRAAFISILIHALNNRPESDALFFSRIGFNQEKTFRLATLWSQDGDPQMDYQMGRLTLNDFSGRYADEPYQARPASLKWFRAAAEKGVVEAQSLLGGIYSGGEGDEWGIKPDIQEAQKWYGQAAKQGDSDAQIALGKIYYSGATGRTDYAKALALFTQVENDGTNSRSTMPLSWMYYNGLGTAPDCDKAWSYYKKASRYVGKKVEEGHHHHHH | not soluble |
| MSLEISKQTSDLLLSLEKKKGTLPKFSVLRSIPRNRIIYGAPGTGKSNYLEREVGKIFGDNPYVFTRVTFFPGYTYGQFIGAYKPVPIYKKLSGEEEIFSSNFRDKMENFEPMIDYQFVPGPFIDVLIKALKNRYTNFILIIEEINRANAASVFGDIFQLLDRNKNGESDYPVTFGPDIMNYLARNGIKDEMIKLPSNFFIWATMNNADQGVLPLDTAFKRRWSFEYLELEKYRKAVDSWKLSLRYKGHNKVIMWNDFRDIINKRLKGKVPEDKLLGPFFLKESELWNQNVFKNKLLYYLKEDVFKHNPTIDFLNASTFSELIEKYDGSDNIFTFDIDDSSFVSDEGGSHHHHHH | soluble |
| MSLEKQIESYYQEIAQLIIDMIPEEWAEVRFYAQEDHDGWKIFFFHYLSASSDEWTKDIDIRDVIKVPQDEFMEKYNELSFCISDFRKDYAEAFGEPWMSFQMTFYASGKFNIDFYYDKNPFDTFLTRLAWQYEHFGTIPEDSFYKETLNEYLEEKAQGKRYPFLEPLKEEEGHHHHHH | soluble |
| MSLEKQMNCNLKELKEFIDNEMLLILGQMDKPSLIFDHLYLGSEWNASNLEELQGSGVDYILNVTREIDNFFPGLFAYHNIRVYDEETTDLLAHWNEAYHFINKAKRNHSKCLVHCKMGVSRSASTVIAYAMKEFGWPLEKAYNYVKQKRSITRPNAGFMRQLSEYEGILDASKQRHNKLWRQQTDSEGHHHHHH | not soluble |
| MSLEKTTRMNYLFDFYQSLLTSKQKSYMSLYYLDDFSLGEIAEEYEVSRQAVYDNIKRTEAMLEQYEEKLLLLKKFQERKEMFNKLKELASGSKEEEEITALIEALEKLD | soluble |
| MSLELAQQWTQQRQALGERDDAMAALKTLDSSYAATTVFPPKGEVSLHERAGLYQGNEVNPPLAAAYRRELETQLLPRVARMLEAQIRGNMQNRERLLNSLRAYLMLNLRERRENGWLKDWVATDWSQRYAGNGTVQNGLNTHFARLLEQPFSYPLNETLVAQARQVLRSESLANVVYRVLREQARSLPEYRFGQHLGPQAGLFVGTDYVIPGFYTQQGYQQYFVVQGASLVNDILRDNWVLGEGSGISDMDLRRLMVELEQLYFRDYANFWSEAVGRLGLLPFNDAGEGADQVSGLLAANSPILQLLLEVRENTRFPVLAESAEALAEASDKAAEKGGKLGKAAAAAAGKARDALAKNLPDTAKKSLQRRFEPLHRLLDDNNGPAADLTPLLQALNELQLQLAGLARASQPEQEGHHHHHH | soluble |
| MSLELKNKKIVVTGGTSGIGLAFAKKLAAIDNQIIIGSRSKEKITEVVKDNKNISGYQVDVSDQESVERFYKQTISEFKNIDIVINSAGIMRHYNLLDEKTTSQKLQAEIQTNLIGTINIDKIFLPILRKQAESMIVNISSGLANLSSAAHPIYSATKAGVHMFTDALREQLHFAGEDHIHIVELVPPLVAETNLEKDVNSQNTPLNIKLSDLINEAIQGIEENSIRINAGMAKEMRKMGQTDPDKNEREMATMMIPMYFPDGLKEGHHHHHH | not soluble |
| MSLELKPKRFLVLDDQLVLRKLISRQASFFTRFAVEIDEFSDPAEALRSIAEGGYHLVITDIGMPGMNGIDFIKNVARLGYQSALLIISGYDGKTLQTIADMSVNLGLSCTRFLSKPYSAEAFVAALNGIFSEMERSEAEGHHHHHH | not soluble |
| MSLELLIPQLEFLNEEGAQAEVWALSRIFLDTLVKETGQKVKAIFPDAGAAALLKYQWTDAEFKCASLSDRKPVDVEDEVVVMIIPDHQMVESVERIASQLSDDPIRPLVMWNPRLVSGDVGVGFNVRNLRRNFLSTFTTVYSMRPLPTGAVFRQYPGKWKVFYDDPKRPNRYLLARELVSRPDATDIEIIFGGGDEQSDEAPSLMNNVMGVFSSVSRFMRVISKEGHHHHHH | not soluble |
| MSLENKRILITGGAGFIGSNMVEHLLPKNEVTVIDNLSITDDRYIKKFYDNPNFKFIKKDILNGIDGYHYDIVVHLAADSDVRNGSSNPALDMKVNVEGTISVLEMMRKSDIKDILFASSSTVYGEAKVIPTPENYGPLLPISSYGASKLAAEAFISAYASYYGFNALLFRFANVVGKNSTHGVIFDFINKLKNNKKELEVLGDGTQAKSYIHVEDLIGSMIYVYEHVKGVEPFNLGNDDVTSVDKIAKFVLEAMGLKDTAIVHRGGYNGRGWPGDVKYAMMDIAKLKKTGWKNKYSSDEAVKKSINEVMNQILEGHHHHHH | soluble |
| MSLEQKILAQGALEAARRRQSEQEKALLLSQLKQLQSQMEPHFLFNTLANINALIAVEPYKAQLMLEKFTELLRGTMRLRRTNTGDLREEMQLIDAYLGIQKIRLGERLEYTLPELSELGTLGMPPMLIQPLVENAVSHGIEPKAEGGTIRVRIEVADDWFELSVEDNGMGLSDTPKGNGIALQNVRDRLSGLFGHEGLLTVAQNCSGGVTATLRIRLHHLQGLQRSFYDYSQARSPQSEGHHHHHH | soluble |
| MSLERQTLKQKLSTLIQPLQTAKRGAPLTNRTLSATTCQQIESLVTAIEALNPNLSPLLYSPQLLDGNWWLNYSTAREIRSLDKLPLGLKVGRIYQIINVPNQSFLNQAFVYHPLGLAKGYVKVTAKFEIAKPAGTVLPDKRINVEFLERMISIQKLMGVPTPKLDPAKVVPARSPEGRIPFLEITYLDDDLRIGRGGEGSLFVLSKVSEVTPLEHHHHHH | not soluble |
| MSLESIKVVIVGGGQAGIAMGYYLVKEKVPFMILDANEQVGDSWRNRYDSLVLFTPRTYSQLPGFPMDGAPNGFPTKDEMASYLQQYANHFNLPMRHHTKVDRVTRQQNGRFHLKTTNGWIEAEKVVIATGAFQKPYLPPVLDSANNEMSQVHSSAYRNPAQIPGKSVLVVGGGNSGAQIAVELAKERNVTMAISHPFRFLPLKLLNKSMFSWLEWGGLLYAGIDTTRGRWFKKQKDPIFGKELKSLIKKGQIHLKPRVMNVQGKEVEFADHSRLSFDRIIWSTGFSPSYEWIDIDGVIATNGWPIHNRGITNIRGLYFLGLPWQYQRGSALVCGVGRDAEYLVPFIKHGDKEGHHHHHH | soluble |
| MSLETKTPNDAKNQVQTHERMKTSSEHVTPLDFNYPIHIVQAPQNHHVVGILTPRIQVSDNLKPYIDKFQDALINQIQTIFEKRGYQVLRFQDEKALNAQDKRKIFSVLDLKGWVGILEDLKMNLKDPNNPNLDTLVDQSSGSVWFNFYEPESNRVVHDFAVEVGTFQAMTYTYKHNNSGGLNSSNSIIHEYLEKNKEDAIHKILNRMYAVVMKKAVTELTKENIDKYREAIDRMKGFKSSMPQKKEGHHHHHH | soluble |
| MSLETQDHTLYVLLGPTGVGKTDLSLDIAERLGSPIISADSRQIFRELPIGTAAPTPEQRARVPHLFVGTHSVRDYYSAGMYEVEVLEALKELFRKYRGVLLTGGSMMYIDAVCRGIDDIPDPFPEVREELYARYAAEGLDGILAQLRLLDPDYYAKVDRRNYKRVIHGLEICLSTGRPFSSFHRHEAKERPFRIVKIGLYREREELCKRIDARVLEMMEQGLEEEARAVYPLRHLNALNTVGYKEMFEYFDGSIDRAEAVRRIQRNSRVYARKQMTWFRRDSTIRWFHPEADKGTVLTLVTEGHHHHHH | soluble |
| MSLEVLATFLYKFNGWSFLGRVLQNLSKNFDFTDREKVDTIVDIMSMLTKVVGEVSVEDSKHALTSMSAYTDDSDVLEVIFRLFEQSLHSRNIRMIESILNLLTQLVPIFSYRIWPAFSKSALLFDGTREGFATVIFGSIEMVNGDFRLTIALAKLTDALVYDCLTLDNAVPSKVKEAVLKKLVSHLIAVMESYAQEGHHHHHH | soluble |
| MSLEYKYDVVIVGLGPAGSSLAYLLKDTGLKVAGLDIADFNRVWGKPCGDAIGKGHFLETGLPLPKGEAMMQVVNAVDIYSPSEEVKIRLSEPEGGFMIDRNKYGLQLLEEAQKSGVDVYLKTHALSPIIENGRLVGVYAKRHGEDGDVNVKFYSKIIVDATGSGGAIKRKLPSSWPVVEPLKPTDSAVAYRKIVELDYDIEEPDVIRIYINADIAPGGYWWLFPKGRRIANIGIGVQRGRGYPHPRHLYEKYLDKRPDTGRVVRLLNEAGALLPTRRPANTIVWDNFVSIGDNAYTVNPVHGGGMGYAMTAAMYAARGIEKAFEKGDYSVETLWDINLGYMRSTGAKQAGLDILRIYLQTLTNEEVEWAMRNGLANVDNLVEASTQGEIKRLNLTLLEKAKVLARLLGRPTKLMELLTVAEYMSKVKKLYYEYPERPDGLPRWVDRVETLYREYKARLGIDWEGHHHHHH | soluble |
| MSLFIPKRVIFEKDSLDYEAAKNILNKFKDKKDVEIINITSNKLKQHIPGEDFYAQYREGKKTLVVGTKKSLKFQSCKPSAHYQLPLISGCMGQCEYCYLNTKLGDKPFVKVHVNIDEILSQAQKYIDERLPEITIFEGAATSDPIPVEPYTHSLEKAIVFFGKHENARFRFVTKYNDIDSLLDLEHNGHTEMRFSINTSSVINKYEHATASRDLRIEASIKAAKAGYPIGFLVAPVFIYPNWKEEYHDLLLSLSKNLPRDLKTPVTFEIISHRYTSTAKNIILQVFPESELPMSDEERKFKYGQFGYGKYVYPKENIDEMKQFFIKEIEDLFENKEIKYVIEGHHHHHH | soluble |
